From patent publication US7855167 come the findings set out here.

Experiment [1] has as its target WinZip-B2-DHFR[2:I114A] (murine) (UniProt P00375). Description: cell-based or functional assay.
Experiment [2] addresses WinZip-B1-DHFR[2:I114A] (murine) (UniProt P00375). Description: cell-based or functional assay.

In experiment [1], “WinZip-A1-DHFR[1] (from UniProt P00375 1-107) (designed binder)” gave a Frequency of dominant Pair at P12 of 67%, a Selection factor (competition selection) of 87000 and a frequency of the pair among sequenced colonies at P10 (fraction (3/5)) of 0.6. In experiment [2], this substance had a Frequency of dominant Pair at P12 of 82%, a Selection factor (competition selection) of 3.2e+06 and a frequency of the pair among sequenced colonies at P10 of 33%.
